Data as given in US20250276077A1, “EPHA2 ANTIBODIES” (Immunome, Inc., priority 2022, published 2025).

Tests used:
[1] = target: Human EphA2 (ephrin receptor A2), native, in human tumor tissue (human) (UniProt P29317); assay: tissue staining of human cancer samples, 30 ug/ml (the box on the sheet prints AB-010017 twice)
[2] = target: Human EphA2 (ephrin receptor A2), native, in human tumor tissue (human) (UniProt P29317); assay: tissue staining of human cancer samples, 3 ug/ml
[3] = target: Human EphA2 (ephrin receptor A2), native, in human tumor tissue (human) (UniProt P29317); assay: tissue staining of human cancer samples, 30 ug/ml

Human EphA2 (ephrin receptor A2), native, in human tumor tissue (human), sequence (P29317 25-976): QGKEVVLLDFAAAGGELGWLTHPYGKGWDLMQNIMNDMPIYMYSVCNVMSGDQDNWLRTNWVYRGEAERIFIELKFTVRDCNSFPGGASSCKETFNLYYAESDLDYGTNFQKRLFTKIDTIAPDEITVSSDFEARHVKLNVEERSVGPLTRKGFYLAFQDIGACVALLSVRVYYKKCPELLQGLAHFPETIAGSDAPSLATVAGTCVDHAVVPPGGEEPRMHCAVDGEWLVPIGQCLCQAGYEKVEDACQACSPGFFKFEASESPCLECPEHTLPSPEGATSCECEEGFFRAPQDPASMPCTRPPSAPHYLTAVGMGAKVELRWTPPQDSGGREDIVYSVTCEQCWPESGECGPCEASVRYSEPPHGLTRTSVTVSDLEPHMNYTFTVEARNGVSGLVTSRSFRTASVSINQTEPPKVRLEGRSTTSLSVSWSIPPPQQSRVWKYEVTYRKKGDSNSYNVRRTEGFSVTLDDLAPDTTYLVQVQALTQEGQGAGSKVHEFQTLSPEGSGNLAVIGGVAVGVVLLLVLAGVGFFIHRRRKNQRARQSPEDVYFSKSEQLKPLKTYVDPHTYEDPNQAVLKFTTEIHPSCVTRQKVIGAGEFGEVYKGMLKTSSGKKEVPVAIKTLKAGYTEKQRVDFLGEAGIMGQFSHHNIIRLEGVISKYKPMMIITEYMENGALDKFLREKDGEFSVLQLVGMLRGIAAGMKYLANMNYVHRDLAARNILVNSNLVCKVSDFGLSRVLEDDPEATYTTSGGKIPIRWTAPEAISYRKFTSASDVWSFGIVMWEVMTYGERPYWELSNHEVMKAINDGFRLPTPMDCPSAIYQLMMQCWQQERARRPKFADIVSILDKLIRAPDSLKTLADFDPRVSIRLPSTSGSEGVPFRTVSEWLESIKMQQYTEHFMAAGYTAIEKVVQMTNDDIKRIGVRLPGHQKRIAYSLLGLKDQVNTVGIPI

Substance: AB-010016 (based on Medi-547; mouse IgG2a format) (antibody)
- Reactive (% of samples), Bladder Cancer (Urothelial) [1]: 50%
- Reactive (% of samples), Breast Cancer [1]: 47%
- Reactive (% of samples), Cervical Cancer (Squamous) [1]: 40%
- Reactive (% of samples), Colorectal Cancer (Adenocarcinoma) [1]: 40%
- Reactive (% of samples), Esophageal Cancer (Squamous) [1]: 27%
- Reactive (% of samples), Liver Cancer (HCC) [1]: 80%
- Reactive (% of samples), Melanoma [1]: 29%
- Reactive (% of samples), Non-Small Cell Lung Cancer [1]: 26%
- Reactive (% of samples), Ovarian Cancer [1]: 53%
- Reactive (% of samples), Renal Cancer [1]: 0%
- Reactive (% of samples), Soft Tissue Sarcoma [1]: 9%
- Reactive (% of samples), Stomach Cancer (Adenocarcinoma) [1]: 50%
- Reactive (% of samples), Testicular Cancer [1]: 28%
- Reactive (% of samples), Thyroid Cancer [1]: 44%
- Reactive (% of samples), Uterine Cancer [1]: 21%
- Reactive (% of samples), Bladder Urothelial Carcinoma [2]: 33%
- Reactive (% of samples), Breast Cancer [2]: 0%
- Reactive (% of samples), Cervical Squamous Cell Carcinoma [2]: 0%
- Reactive (% of samples), Colorectal Adenocarcinoma [2]: 10%
- Reactive (% of samples), Head & Neck Squamous Cell Carcinoma [2]: 0%
- Reactive (% of samples), Liver Hepatocellular Cell Carcinoma [2]: 7%
- Reactive (% of samples), Melanoma [2]: 0%
- Reactive (% of samples), Non-Small Cell Lung Cancer [2]: 5%
- Reactive (% of samples), Ovarian Cancer [2]: 0%
- Reactive (% of samples), Renal Cancer [2]: 0%
- Reactive (% of samples), Soft Tissue Sarcoma [2]: 0%
- Reactive (% of samples), Stomach Adenocarcinoma [2]: 0%
- Reactive (% of samples), Testicular Cancer [2]: 0%
- Reactive (% of samples), Thyroid Cancer [2]: 0%
- Reactive (% of samples), Uterine Cancer [2]: 0%

Substance: AB-010017 (based on MM-310; mouse IgG2a format) (antibody)
- Reactive (% of samples), Bladder Cancer (Urothelial) [3]: 38%
- Reactive (% of samples), Breast Cancer [3]: 8%
- Reactive (% of samples), Cervical Cancer (Squamous) [3]: 36%
- Reactive (% of samples), Colorectal Cancer (Adenocarcinoma) [3]: 10%
- Reactive (% of samples), Esophageal Cancer (Squamous) [3]: 13%
- Reactive (% of samples), Liver Cancer (HCC) [3]: 43%
- Reactive (% of samples), Melanoma [3]: 7%
- Reactive (% of samples), Non-Small Cell Lung Cancer [3]: 5%
- Reactive (% of samples), Ovarian Cancer [3]: 47%
- Reactive (% of samples), Renal Cancer [3]: 12%
- Reactive (% of samples), Soft Tissue Sarcoma [3]: 3%
- Reactive (% of samples), Stomach Cancer (Adenocarcinoma) [3]: 25%
- Reactive (% of samples), Testicular Cancer [3]: 0%
- Reactive (% of samples), Thyroid Cancer [3]: 0%
- Reactive (% of samples), Uterine Cancer [3]: 7%
- Reactive (% of samples), Bladder Urothelial Carcinoma [2]: 50%
- Reactive (% of samples), Breast Cancer [2]: 0%
- Reactive (% of samples), Cervical Squamous Cell Carcinoma [2]: 27%
- Reactive (% of samples), Head & Neck Squamous Cell Carcinoma [2]: 38%
- Reactive (% of samples), Liver Hepatocellular Cell Carcinoma [2]: 0%
- Reactive (% of samples), Non-Small Cell Lung Cancer [2]: 11%
- Reactive (% of samples), Ovarian Cancer [2]: 6%
- Reactive (% of samples), Renal Cancer [2]: 0%
- Reactive (% of samples), Soft Tissue Sarcoma [2]: 3%
- Reactive (% of samples), Stomach Adenocarcinoma [2]: 25%
- Reactive (% of samples), Testicular Cancer [2]: 0%
- Reactive (% of samples), Thyroid Cancer [2]: 8%
